This is an account of results in publication PMC11969024, “Development of chemokine network inhibitors using combinatorial saturation mutagenesis” (Communications Biology, 2025).

B1: peptide HD2 (from tick evasin EVA4) / CCL22 (biotinylated, synthetic) (parent)
chain 1: EEDDYTAYAPLTCYFT
chain 2: GPYGANMEDSVCCRDYVRYRLPLRVVKHFYWTSDSCPRPGVVLLTFRDKEICADPRVPWVKMILNKLSQ

In this experiment the parent is B1. As to conditions: with CCL22 (biotinylated, synthetic); scale: log2.
Regarding chain 1 EEDDRTAYAPLTCYFT, the enrichment was -7.05.

Regarding chain 1 EEDDGTAYAPLTCYFT, the enrichment was -7.11.

As to chain 1 EEDDPTAYAPLTCYFT, the enrichment is -6.73. With chain 1 EEDDKTAYAPLTCYFT, the enrichment is -5.6. For chain 1 EEDDQTAYAPLTCYFT, the enrichment is -5.36. chain 1 EEDDYTAKAPLTCYFT: the enrichment is -6.07.

For the variant chain 1 EEDDYTARAPLTCYFT, the enrichment was -8.18.

With chain 1 EEDDYTATAPLTCYFT, the enrichment was -8.48.

Regarding chain 1 EEDDYTAEAPLTCYFT, the enrichment was -6.18. chain 1 EEDDYTAIAPLTCYFT: the enrichment was -9.38.

As to chain 1 EEDDYTANAPLTCYFT, the enrichment is -8.13. The figure for chain 1 EEDDYTAGAPLTCYFT is -8.71; for chain 1 EEDDYTAPAPLTCYFT it is -7.86; for chain 1 EEDDYTAHAPLTCYFT it is -7.57.

Turning to chain 1 EEDDYTAQAPLTCYFT, the enrichment was -6.36. As to chain 1 EEDDYTAMAPLTCYFT, the enrichment was -8.49.

Consider chain 1 EEDDYTAYASLTCYFT, for which the enrichment was -9.19.

chain 1 EEDDYTAYATLTCYFT: the enrichment was -7.86. As to chain 1 EEDDYTAYAQLTCYFT, the enrichment is -6.39.

As to chain 1 EEDDYTAYANLTCYFT, the enrichment is -8.02.

For chain 1 EEDDYTAYARLTCYFT, the enrichment was -9.08. Regarding chain 1 EEDDYTAYAMLTCYFT, the enrichment is -8.5. As to chain 1 EEDDYTAYAVLTCYFT, the enrichment was -10.4.
